Experimental findings from patent publication US11325952B2, “Light-gated signaling modulation” (Korea University Research and Business Foundation, priority 2016, dated 2022) are described below.

Experiment [1] deals with hippocampal culture neurons. Description: Cal-Light test in dissociated hippocampal culture neurons (EGFP reporter). It counts as cell-based, rat.
The next experiment relates to cortical slice culture. Kind of experiment: Cal-Light test in cortical slice culture (EGFP reporter). Type of experiment: cell-based. Conditions: further increase of neuronal activity by bicuculine application. An excerpt: FIG. 18. Cal-Light test in cortical slice culture. AAV expressing Cal-Light constructs and EGFP reporter were infected to cortical slice culture at DIV3 (Days in vitro). […] Examples of action potentials were plotted at the top left panel. Electrical stimulation reliably triggered action potentials measured in layer 2/3 pyramidal neurons. Two days later, slices were fixed and images were taken by confocal microscopy. […] Blue light or high frequency stimuli alone was not able to increase the level of EGFP expression.
[…] Cortical slice culture were made at postnatal day 3 and AAV expressing Cal-Light constructs including an EGFP reporter were infected to slices at DIV 3 (Days in vitro). After 12 days of expression, a bipolar stimulation electrode was placed in layer 2/3. […] This stimulation protocol was repeated 30 times, resulting in triggering about 300 action potentials in total. Two days later, slices were fixed and gene expression pattern was imaged by confocal microscopy.

Experiment [2] has as its system HEK293T cells. Kind of experiment: SEAP chemiluminescent assay of BLITz constructs, light-induced gene expression. It counts as cell-based. Conditions: for light-induced gene expression: blue light; for background (baseline) gene expression level: dark state. The protocol: HEK293T cells were grown in high glucose Dulbecco's Modified Eagle Medium (DMEM) (Gibco, CA, USA) containing 10% fetal bovine serum (Cat #10438-018, Gibco) and 1% penicillin-streptomycin (Invitrogen, NY, USA). Cells were incubated at 37° C. and under 10% CO2 conditions. For the experiment, all dishes and coverslip were pre-coated with a 1 mg/ml Poly-D-Lysine hydrobromide (Cat #P0899, Sigma-Aldrich, St. Louis, Mo., USA) solution for 2 hrs. After 0.25% trypsin (Cat #25200, Gibco) treatment for 2 min, detached cells were collected and the total cell numbers were counted. Dissociated cells were plated at 2×10^5 cells per 12 mm coverslip. 24 hrs later, DNA plasmid vectors were transfected using the calcium phosphate transfection kit (Clontech, CA, USA). The mixture of the DNA solution was slowly added into 2× Hepes Buffered Saline. After 1 hr incubation, precipitated solutions were added into each well.
Blue light was illuminated by 465 nm wavelength blue LED array (LED wholesalers, Hayward, Calif., USA) that was controlled by a high-accuracy digital electronic timer (Model 451, GraLab, Centerville, Ohio, USA). The LED array was installed inside the 37° C. and 10% CO2 incubator. One transparent blank plate with 2 cm height was inserted between the LED source and the sample to inhibit potential undesirable heating caused by the direct contact of the LED. In the experimental setup, the power of blue light at the specimen was 1.7 mW, measured by a power meter (PM100D, ThorLabs, Newton, N.J., USA). To make a dark condition, all lights were prevented by wrapping culture plates with an aluminum foil, and all experimental procedures were carried out under dim red light.
For the quantification of gene-expression levels, a secreted embryonic alkaline phosphatase (SEAP) chemiluminescent assay was used. All reagents for the SEAP assay were purchased from InvivoGen (San Diego, Calif., USA). 40 μl of sample was collected from the medium of each well and transferred into 96-wells plate. Samples were pre-heated in a 60° C. incubator for 10 m to inhibit the activity of endogenous alkaline phosphatase. All mixtures were added into a single master tube including SEAP substrates and L-homoarginine. The mixed solutions were carefully added into each sample onto 96-wells plate without bubbles. The chemiluminescence of each sample was measured by a micro-plate reader (SpectraMax Plus 384, Molecular Devices, Sunnyvale, Calif., USA) at 37° C. at 405 nm. Assays were made at every 30 s for 2 hrs. All data and the calculation of Vmax were acquired by a SoftMax Pro 5.4.1 (Molecular Devices).
Thus, to prevent access by TEV protease in the dark state, but to allow complete access upon blue light illumination, the C-terminal region of the Jα-helix on AsLOV2 with the TEVseq was modified (FIG. 1a, b). […]

For experiment [3], the system named is HEK293T cells. Description: EGFP expression reporter assay of BLITz constructs. It counts as cell-based. Conditions: dark vs blue light. An excerpt:
FIG. 1: Development of BLITz system. (a) Schematic drawing of BLITz proteins and simple diagram of light-induced gene expression. The major protein body, TM-CIBN-TEV-N-AsLOV2-TEVseq-TetR-VP16 (tTA), is targeted to a membrane with a transmembrane domain (TM). CRY2PHR-TEV-C is localized in the cytosol. Blue light causes interaction of CRY2PHR with CIBN, and TEV-C and TEV-N subsequently interact with each other. At the same time, TEVseq is unmasked due to conformational changes of AsLOV2 Jα-helix. When these two light-dependent processes are satisfied, TEVseq cleaves TetR-VP16, which translocates to the nucleus and causes targeted gene expression. (b) Design of TEVseq insertion into Jα-helix. […]
HEK293T cells were grown in high glucose Dulbecco's Modified Eagle Medium (DMEM) (Gibco, CA, USA) containing 10% fetal bovine serum (Cat #10438-018, Gibco) and 1% penicillin-streptomycin (Invitrogen, NY, USA). […] After 0.25% trypsin (Cat #25200, Gibco) treatment for 2 min, detached cells were collected and the total cell numbers were counted. […]
Blue light was illuminated by 465 nm wavelength blue LED array (LED wholesalers, Hayward, Calif., USA) that was controlled by a high-accuracy digital electronic timer (Model 451, GraLab, Centerville, Ohio, USA). […] In the experimental setup, the power of blue light at the specimen was 1.7 mW, measured by a power meter (PM100D, ThorLabs, Newton, N.J., USA). […]

Turning to `NC1=N[C@H](O)[C@H]2[C@H]3O[C@]4(O)O[C@@H]([C@@H](O)[C@@]2(N1)[C@@H]4O)[C@]3(O)CO` [TTX, tetrodotoxin], in experiment [1], the “reporter EGFP gene expression level” value is given as “kept low”.

Take `CN1CCc2cc3c(cc2[C@H]1[C@@H]1OC(=O)c2c1ccc1c2OCO1)OCO3` [bicuculine]: the EGFP expression entry in the experiment on cortical slice culture is on record as “significant increase”.

B1: BLITz-6: AsLOV2 Jα-helix C-terminal deletion variant with TEVseq; selected for the neuromodulation mapping system (protein)
chain: EFLATTLERIEKNFVITDPRLPDNPIIFASDSFLQLTEYSREEILGRNCRFLQGPETDRATVRKIRDAIDNQTEVTVQLINYTKSGKKFWNVFHLQPMRDYKGDVQYFIGVQLDGTERLHGAAEREAVCLIKKTAFQI
modifications: BLITz-6 AsLOV2 (1-138 A.A.)
Consider B1, for which, in the experiment on HEK293T cells [2], the light-induced gene expression entry was “high” and the “background (baseline) gene expression level” value is recorded as “completely abolished”. Besides, in the experiment on HEK293T cells [3], the EGFP signals entry is “detected only when blue light was illuminated”.

B2: BLITz-1: AsLOV2 Jα-helix C-terminal deletion variant with inserted TEV cleavage sequence, in TM-CIBN-TEV-N-AsLOV2-TEVseq-tTA fusion protein (protein)
chain: EFLATTLERIEKNFVITDPRLPDNPIIFASDSFLQLTEYSREEILGRNCRFLQGPETDRATVRKIRDAIDNQTEVTVQLINYTKSGKKFWNVFHLQPMRDYKGDVQYFIGVQLDGTERLHGAAEREAVCLIKKTAFQIA
modifications: BLITz-1 AsLOV2 (1-139 A.A.)
Turning to B2, in the experiment on HEK293T cells [2], the light-induced gene expression result was “high” and the “background (baseline) gene expression level” value is “completely abolished”. In addition, the EGFP signals entry with HEK293T cells [3] is “detected only when blue light was illuminated”.
